Assay results reported in patent US8088617B2, “Antibodies that bind the glutamate ligand binding region of Notch1” (OncoMed Pharmaceuticals, Inc., priority 2007, dated 2012).
Entries after “also recorded” stand apart in the source; their conditions may differ.

What was measured:
[1] = test system: Notch signaling (ICD formation) in Hela cells stably expressing Notch1; test: Western blot of Notch ICD formation in response to DLL4; assay type: cell-based; details: 10 ug/ml soluble DLL4-Fc; western blot of cell lysates
Source text: FIG. 8: Monoclonal Antibodies to the Notch Ligand Binding Domain Inhibit Notch Signaling. A) A schematic of the Notch signaling mechanism. Upon ligand binding, gamma secretase activity cleaves the Notch receptor and liberates the intracellular domain (ICD) to activate downstream Notch signaling. B) Monoclonal antibodies against the Notch ligand binding domain inhibit Notch signaling in response to Notch ligand DLL4.
In certain embodiments, the ability of antibodies against a Notch ligand binding region to block Notch signaling was measured by inhibition of Notch cleavage in response to ligand stimulation. Hela cells stably expressing Notch1 were cultured in DMEM supplemented with antibiotics and 10% FCS. Cells were then incubated in the presence of 10 ug/ml soluble DLL4-Fc protein in the presence or absence of monoclonal antibodies against a Notch ligand binding domain, control antibodies, antibodies against Notch1 binding outside the ligand binding region (13M57), and gamma secretase inhibitor DBZ. Cells were harvested and cell lysates analyzed by western blot using an antibody that recognizes the cleaved intracellular domain (ICD) of Notch generated in response to ligand induced signaling (FIG. 8A).

[2] = molecular target: T1, wild type full length Notch1 (Homo sapiens, UniProt P46531); test: FACS binding to HEK293 cells co-transfected with GFP and wild type Notch1; details: HEK293 cells co-transfected with GFP
T1 construct: co-transfected with GFP and either wild type full length Notch1; expressed in transfected cells; host or cells: HEK293
T1 sequence (P46531 19-2555): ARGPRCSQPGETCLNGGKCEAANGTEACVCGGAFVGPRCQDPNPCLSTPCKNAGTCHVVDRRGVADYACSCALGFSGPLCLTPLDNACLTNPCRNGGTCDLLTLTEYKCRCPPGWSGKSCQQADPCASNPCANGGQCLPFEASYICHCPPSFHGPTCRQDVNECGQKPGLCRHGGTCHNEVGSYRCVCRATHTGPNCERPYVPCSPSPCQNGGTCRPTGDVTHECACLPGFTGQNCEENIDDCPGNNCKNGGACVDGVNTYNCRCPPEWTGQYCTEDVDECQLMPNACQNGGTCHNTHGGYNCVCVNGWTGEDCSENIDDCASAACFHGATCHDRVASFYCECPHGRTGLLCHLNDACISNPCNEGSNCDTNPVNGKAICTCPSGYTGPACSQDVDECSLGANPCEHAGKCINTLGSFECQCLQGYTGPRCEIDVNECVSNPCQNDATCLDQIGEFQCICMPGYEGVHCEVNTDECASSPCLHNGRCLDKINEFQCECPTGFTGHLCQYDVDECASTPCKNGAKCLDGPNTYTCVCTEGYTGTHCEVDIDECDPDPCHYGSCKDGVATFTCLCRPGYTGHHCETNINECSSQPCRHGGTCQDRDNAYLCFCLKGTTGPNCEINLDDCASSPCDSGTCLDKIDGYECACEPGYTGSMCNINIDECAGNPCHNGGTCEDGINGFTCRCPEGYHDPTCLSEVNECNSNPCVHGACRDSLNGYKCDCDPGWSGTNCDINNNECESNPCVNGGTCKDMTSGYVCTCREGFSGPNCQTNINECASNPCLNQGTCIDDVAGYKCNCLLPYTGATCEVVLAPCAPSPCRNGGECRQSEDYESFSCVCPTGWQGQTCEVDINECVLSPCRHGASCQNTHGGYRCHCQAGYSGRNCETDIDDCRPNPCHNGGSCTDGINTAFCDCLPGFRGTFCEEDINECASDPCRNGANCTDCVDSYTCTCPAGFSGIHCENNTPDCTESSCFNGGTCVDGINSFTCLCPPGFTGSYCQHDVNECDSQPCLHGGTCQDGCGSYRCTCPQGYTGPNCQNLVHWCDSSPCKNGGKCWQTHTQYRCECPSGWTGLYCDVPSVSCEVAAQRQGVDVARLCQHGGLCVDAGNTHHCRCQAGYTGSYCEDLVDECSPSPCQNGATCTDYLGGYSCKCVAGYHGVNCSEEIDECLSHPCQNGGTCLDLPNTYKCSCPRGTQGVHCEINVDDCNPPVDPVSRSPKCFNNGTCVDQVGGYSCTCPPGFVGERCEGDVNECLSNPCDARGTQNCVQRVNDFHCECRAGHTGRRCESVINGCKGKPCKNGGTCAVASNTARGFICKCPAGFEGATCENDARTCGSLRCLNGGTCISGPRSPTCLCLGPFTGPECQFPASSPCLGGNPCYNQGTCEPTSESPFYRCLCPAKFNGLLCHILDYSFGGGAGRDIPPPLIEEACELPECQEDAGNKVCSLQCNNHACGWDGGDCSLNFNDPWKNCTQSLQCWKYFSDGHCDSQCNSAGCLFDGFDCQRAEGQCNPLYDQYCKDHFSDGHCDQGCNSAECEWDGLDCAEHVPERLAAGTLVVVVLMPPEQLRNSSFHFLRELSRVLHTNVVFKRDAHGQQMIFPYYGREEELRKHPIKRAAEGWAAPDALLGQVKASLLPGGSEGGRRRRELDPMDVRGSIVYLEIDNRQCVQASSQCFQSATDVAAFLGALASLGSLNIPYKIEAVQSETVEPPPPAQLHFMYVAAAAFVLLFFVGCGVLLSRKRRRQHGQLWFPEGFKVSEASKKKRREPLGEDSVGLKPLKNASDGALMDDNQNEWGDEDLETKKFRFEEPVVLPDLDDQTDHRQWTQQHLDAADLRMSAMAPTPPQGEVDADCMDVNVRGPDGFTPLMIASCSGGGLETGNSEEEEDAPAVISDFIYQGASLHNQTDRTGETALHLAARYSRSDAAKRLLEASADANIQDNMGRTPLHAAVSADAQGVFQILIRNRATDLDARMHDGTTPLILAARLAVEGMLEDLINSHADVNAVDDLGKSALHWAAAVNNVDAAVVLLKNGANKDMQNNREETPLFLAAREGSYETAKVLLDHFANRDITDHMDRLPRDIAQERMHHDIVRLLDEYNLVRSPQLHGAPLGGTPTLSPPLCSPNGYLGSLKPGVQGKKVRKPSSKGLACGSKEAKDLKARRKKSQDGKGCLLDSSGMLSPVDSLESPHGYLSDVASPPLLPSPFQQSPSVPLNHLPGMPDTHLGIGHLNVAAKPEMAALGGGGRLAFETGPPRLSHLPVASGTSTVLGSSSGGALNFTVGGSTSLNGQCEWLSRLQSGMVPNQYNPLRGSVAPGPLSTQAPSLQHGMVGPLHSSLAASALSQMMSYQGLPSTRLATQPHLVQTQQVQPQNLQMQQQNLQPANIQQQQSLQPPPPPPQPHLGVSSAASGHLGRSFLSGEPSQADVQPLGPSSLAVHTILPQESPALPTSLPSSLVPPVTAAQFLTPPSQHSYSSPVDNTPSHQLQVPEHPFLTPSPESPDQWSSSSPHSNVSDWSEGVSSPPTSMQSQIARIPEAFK
Source text: (§1) FIG. 4: Identification of a fAb that Binds a Critical Ligand Binding Domain of Notch1. FACS analysis of HEK 293 cells co-transfected with GFP and either wild type Notch or Notch1 E424Q using a human fAb identified by phage display as binding the ligand binding domain of Notch1. GFP expression marked cells expressing recombinant Notch1 protein (x-axis) and binding to Notch1 is indicated along the y-axis.
(§2) FIG. 5: Identification of an Antibody that Binds the Ligand Binding Region of Multiple Notch Receptors. FACS analysis of HEK 293 cells co-transfected with GFP and wild type Notch3, Notch1 or Notch1 E424Q using a human fAb identified by phage display as binding the ligand binding domain of Notch3. GFP expression marked transfected cells expressing recombinant Notch protein (x-axis). Binding of fAb is indicated on the y-axis.
(§3) To confirm that the lead Notch1 fAb was specific for the ligand binding region of Notch1, HEK293 cells were co-transfected with GFP and either wild type full length Notch1 or Notch1 containing the amino acid substitution E424Q.

Notch1 E424Q = molecular target: T2, Notch1 E424Q (Homo sapiens, UniProt P46531, E424Q); test: FACS binding to HEK293 cells co-transfected with GFP and Notch1 E424Q; details: HEK293 cells co-transfected with GFP
T2 construct: Full-length wild type Notch1 or Notch1 E424Q was co-transfected with GFP into HEK 293 cells; expressed in transfected cells; host or cells: HEK293
T2 sequence (P46531 19-2555 E424Q): as the sequence (P46531 19-2555) above, with E406Q counted along it
Source text: as §1, §2, §3

human Notch3 = human Notch3 (Homo sapiens, UniProt Q9UM47); test: fAb binding to human Notch3 (phage display selection)
human Notch3, sequence (Q9UM47 40-2321): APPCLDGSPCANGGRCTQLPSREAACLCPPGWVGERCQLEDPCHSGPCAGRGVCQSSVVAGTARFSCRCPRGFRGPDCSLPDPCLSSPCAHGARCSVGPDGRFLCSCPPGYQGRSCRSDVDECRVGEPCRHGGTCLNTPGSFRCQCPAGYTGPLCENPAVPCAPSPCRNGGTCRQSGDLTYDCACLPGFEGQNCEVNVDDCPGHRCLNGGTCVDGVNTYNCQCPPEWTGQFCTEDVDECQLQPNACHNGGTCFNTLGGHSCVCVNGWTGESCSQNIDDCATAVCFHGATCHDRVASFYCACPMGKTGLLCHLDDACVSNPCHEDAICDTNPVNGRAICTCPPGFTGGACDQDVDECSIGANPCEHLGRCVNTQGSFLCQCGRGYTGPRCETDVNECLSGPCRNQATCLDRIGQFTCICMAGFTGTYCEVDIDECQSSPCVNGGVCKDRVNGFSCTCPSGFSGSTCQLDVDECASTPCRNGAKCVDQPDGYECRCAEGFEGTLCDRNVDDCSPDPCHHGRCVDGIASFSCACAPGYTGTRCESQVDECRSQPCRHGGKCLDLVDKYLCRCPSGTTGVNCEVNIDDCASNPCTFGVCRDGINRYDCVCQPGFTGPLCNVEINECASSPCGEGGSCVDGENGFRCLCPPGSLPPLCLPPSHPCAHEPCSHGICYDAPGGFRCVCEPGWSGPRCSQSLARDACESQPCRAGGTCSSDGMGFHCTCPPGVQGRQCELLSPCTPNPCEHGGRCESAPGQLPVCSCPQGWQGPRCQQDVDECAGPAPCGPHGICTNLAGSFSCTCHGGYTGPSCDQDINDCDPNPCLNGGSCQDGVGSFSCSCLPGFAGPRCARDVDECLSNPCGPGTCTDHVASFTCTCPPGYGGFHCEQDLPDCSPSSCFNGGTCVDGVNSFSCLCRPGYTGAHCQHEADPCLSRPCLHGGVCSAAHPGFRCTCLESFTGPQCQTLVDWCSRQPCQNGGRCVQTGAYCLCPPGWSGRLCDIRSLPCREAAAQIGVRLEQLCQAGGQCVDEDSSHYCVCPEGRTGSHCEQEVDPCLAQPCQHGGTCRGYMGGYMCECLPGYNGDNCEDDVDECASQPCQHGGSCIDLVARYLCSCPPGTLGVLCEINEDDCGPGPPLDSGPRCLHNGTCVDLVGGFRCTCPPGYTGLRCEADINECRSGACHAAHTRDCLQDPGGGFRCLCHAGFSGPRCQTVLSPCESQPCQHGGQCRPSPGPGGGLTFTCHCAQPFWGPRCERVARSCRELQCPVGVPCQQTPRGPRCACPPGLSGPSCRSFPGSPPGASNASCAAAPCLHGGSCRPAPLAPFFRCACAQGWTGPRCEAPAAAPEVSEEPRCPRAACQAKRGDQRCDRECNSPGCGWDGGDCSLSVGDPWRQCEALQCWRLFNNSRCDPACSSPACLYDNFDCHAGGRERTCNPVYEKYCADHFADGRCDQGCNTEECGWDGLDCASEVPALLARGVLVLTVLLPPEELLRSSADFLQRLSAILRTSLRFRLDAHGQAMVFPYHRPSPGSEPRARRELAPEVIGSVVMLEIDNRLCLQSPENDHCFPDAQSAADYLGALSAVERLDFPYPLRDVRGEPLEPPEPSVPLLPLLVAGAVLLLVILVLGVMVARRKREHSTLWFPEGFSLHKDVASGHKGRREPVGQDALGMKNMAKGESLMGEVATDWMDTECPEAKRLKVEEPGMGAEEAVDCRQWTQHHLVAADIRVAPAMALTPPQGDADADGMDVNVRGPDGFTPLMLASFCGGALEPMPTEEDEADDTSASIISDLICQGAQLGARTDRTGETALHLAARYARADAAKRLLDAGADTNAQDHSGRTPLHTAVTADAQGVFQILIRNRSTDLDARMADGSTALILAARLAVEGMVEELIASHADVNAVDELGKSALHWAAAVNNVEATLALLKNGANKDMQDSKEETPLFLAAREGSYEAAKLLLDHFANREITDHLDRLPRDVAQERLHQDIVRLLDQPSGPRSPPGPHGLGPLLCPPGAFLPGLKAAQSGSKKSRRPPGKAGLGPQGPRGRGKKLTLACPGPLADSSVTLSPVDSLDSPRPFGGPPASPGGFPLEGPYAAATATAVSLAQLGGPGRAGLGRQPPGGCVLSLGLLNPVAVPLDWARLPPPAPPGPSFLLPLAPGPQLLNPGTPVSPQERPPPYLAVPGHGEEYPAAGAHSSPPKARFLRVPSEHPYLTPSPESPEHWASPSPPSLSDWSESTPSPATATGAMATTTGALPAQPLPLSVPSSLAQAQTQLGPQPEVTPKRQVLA
Description: (§4) In certain embodiments, phage display identified a specific fAb that binds to the ligand binding domain within Notch1. In certain embodiments, phage display identified a specific fAb that binds to the ligand binding domain within Notch3. In certain embodiments, a fAb was discovered that bound to the ligand binding domain of both Notch3 and Notch1. In certain embodiments, 2×10^13 Fab displaying phage particles from a human fAb phage library were incubated with cells expressing full length recombinant protein or passively immobilized recombinant protein fragments, non-specific phage were washed off, and then specific phage were eluted with either low pH (cells) or DTT (recombinant protein). The eluted output was used to infect TG1 F+ bacteria, rescued with helper phage, and then Fab display induced with IPTG (0.25 mM). The output of this rescued round one served as the starting point for further selections in rounds two, three, four, and five as indicated in Table 1.
(§5) For Notch3, the phage display library was panned for binding to the analogous epitope within Notch3 (comprising amino acid 403 of Notch3) using similar approach for as Notch1. […] The 122R5 heavy chain comprises the amino acids of SEQ ID NO: 9, including CDR1 (SEQ ID NO: 10); CDR2 (SEQ ID NO: 11) and CDR3 (SEQ ID NO: 12). […]

murine Notch3 = murine Notch3 (Mus musculus, UniProt Q61982); test: fAb binding to murine Notch3 (phage display selection)
Description: as §4, §5

Notch3 (E403Q) = Notch3 (E403Q) (Homo sapiens, UniProt Q9UM47, E403Q); test: fAb binding to Notch3 with E403Q substitution
Notch3 (E403Q), sequence (Q9UM47 40-2321 E403Q): as the sequence (Q9UM47 40-2321) above, with E364Q counted along it
Source text: For Notch3, the phage display library was panned for binding to the analogous epitope within Notch3 (comprising amino acid 403 of Notch3) using similar approach for as Notch1. […] The 122R5 heavy chain comprises the amino acids of SEQ ID NO: 9, including CDR1 (SEQ ID NO: 10); CDR2 (SEQ ID NO: 11) and CDR3 (SEQ ID NO: 12). The 122R5 light chain comprises the amino acids of SEQ ID NO: 13, including CDR1 (SEQ ID NO: 14); CDR2 (SEQ ID NO: 15) and CDR3 (SEQ ID NO: 16).

human Notch1 = molecular target: T3, human Notch1 (Homo sapiens, UniProt P46531); test: FACS: inhibition of DLL4 binding to Notch1 on stably transfected HEK293 cells; details: soluble DLL4-fc, increasing concentrations of antibody
T3 construct: expressed in transfected cells
Description: FIG. 6: Affinity Matured mAbs that Bind the Ligand Binding Domain of Notch1 Inhibit Binding of DLL4 to Notch1. […] Three affinity matured variants were tested for their ability to block binding between DLL4 and Notch1 (y-axis) in the presence of increasing concentrations of antibody (x-axis).
The ability of antibodies specific for the critical ligand binding region to inhibit binding of Notch ligands to Notch was evaluated. In certain embodiments, the ability of a panel of affinity matured monoclonal antibodies specific for the Notch1 ligand binding region to inhibit binding of DLL4 to Notch1 was determined by FACS analysis (FIG. 6). HEK293 cells stably transfected with human Notch1 were incubated with soluble DLL4-fc fusion protein in the presence of increasing concentrations of 90R21, 90R22, and 90R29 antibodies. […] HEK293 cells co-transfected with GFP and full length Notch3 were incubated with a soluble human Jag1-fc fusion protein in the absence (No Ab) or presence (122R03E1) of the fAb.

PE13 breast tumor cells = test: PE13 breast tumor xenograft growth; assay type: in vivo, NOD/SCID mice
Description: (§6) FIG. 9: Monoclonal Antibodies to the Notch Ligand Binding Domain Inhibit Tumor Growth In Vivo. NOD/SCID mice were injected with dissociated PE13 (A) or T3 (B) breast tumor cells and treated with either control antibodies (black squares); anti-Notch ligand binding region antibodies 90R21 (open circles); control antibodies in combination with Paclitaxel (black triangles); or 90R21 antibodies in combination with Paclitaxel (open triangles).
(§7) In certain embodiments, tumor cells from a patient sample (solid tumor biopsy or pleural effusion) that have been passaged as a xenograft in mice were prepared for repassaging into experimental animals. Tumor tissue was removed under sterile conditions, cut up into small pieces, minced completely using sterile blades, and single cell suspensions obtained by enzymatic digestion and mechanical disruption. Specifically, pleural effusion cells or the resulting tumor pieces were mixed with ultra-pure collagenase III in culture medium (200-250 units of collagenase per mL) and incubated at 37° C. for 3-4 hours with pipetting up and down through a 10-mL pipette every 15-20 minutes. Digested cells were filtered through a […] nylon mesh, washed with RPMI/20% FBS, and washed twice with HBSS. […]
(§8) In certain embodiments, anti-Notch ligand binding region antibodies were analyzed for their ability to reduce the growth of breast tumors in vivo. […]

T3 breast tumor cells = test: T3 breast tumor xenograft growth; assay type: in vivo, NOD/SCID mice; details: estrogen pellet
Description: as §6, §7, §8

[3] = antibody 10 mg/kg twice a week in combination with Paclitaxel 10 mg/kg once a week
[4] = antibody alone 10 mg/kg twice a week, vs control antibody, after 55 days

`C[C@H](NC(=O)Cc1cc(F)cc(F)c1)C(=O)N[C@@H]1C(=O)N(C)c2ccccc2-c2ccccc21` [DBZ, reference compound] was tested, and the “formation of Notch ICD in response to DLL4” value [1] was “prevented formation of Notch ICD; also recorded: blocked this signaling event”.

B1: 122R5: lead anti-Notch3 fAb; heavy chain SEQ ID NO: 9, light chain SEQ ID NO: 13; ATCC PTA-8908 (antibody)
heavy: MKHLWFFLLLVAAPRWVLSQVQLVESGGGLVQPGGSLRLSCAASGFTFSDNAIHWVRQAPGKGLEWVSAISSYGSGTYYADSVKGRFTISRDNSKNTLYLQMNSLRAEDTAVYYCARPGFQFSFTFMDIWGQGTLVTVSSASTKGPSVFPLAPCSRSTSESTAALGCLVKDYFPEPVTVSWNSGALTSGVHTFPAVLQSSGLYSLSSVVTVPSSNFGTQTYTCNVDHKPSNTKVDKTVERKCCVECPPCPAPPVAGPSVFLFPPKPKDTLMISRTPEVTCVVVDVSHEDPEVQFNWYVDGVEVHNAKTKPREEQFNSTFRVVSVLTVVHQDWLNGKEYKCKVSNKGLPAPIEKTISKTKGQPREPQVYTLPPSREEMTKNQVSLTCLVKGFYPSDIAVEWESNGQPENNYKTTPPMLDSDGSFFLYSKLTVDKSRWQQGNVFSCSVMHEALHNHYTQKSLSLSPGK
light: MAWALLLLTLLTQGTGSWADIELTQPPSVSVAPGQTARISCSGDALGSKYASWYQQKPGQAPVLVIYDDKNRPSGIPERFSGSNSGNTATLTISGTQAEDEADYYCQSWDGKSKVVFGGGTKLTVLGQPKAAPSVTLFPPSSEELQANKATLVCLISDFYPGAVTVAWKADSSPVKAGVETTTPSKQSNNKYAASSYLSLTPEQWKSHRSYSCQVTHEGSTVEKTVAPTECS
modifications: Synthetic 122R5 Heavy chain; Synthetic 122R5 Light chain
In the case of B1, the “binding to cells expressing wild type Notch1” value [2] is reported as “ability to bind to Notch1”, the “binding to cells expressing Notch1 E424Q” value (Notch1 E424Q) is reported as “not to Notch1(E424Q)” and the “binding to human Notch3” value (human Notch3) is reported as “bound”. The “binding to murine Notch3” value (murine Notch3) was “bound” and the “binding to Notch3 (E403Q)” value (Notch3 (E403Q)) was “not Notch3 (E403Q)”.

B2: 90R21: affinity matured anti-Notch1 ligand binding domain antibody; heavy chain SEQ ID NO: 1, light chain SEQ ID NO: 5; ATCC PTA-8909 (antibody)
heavy: MKHLWFFLLLVAAPRWVLSEVQLLESGGGLVQPGGSLRLSCAASGFTFSNYGMSWVRQAPGKGLEWVSSISGYGSNTYYADSVKGRFTISRDNSKNTLYLQMNSLRAEDTAVYYCARISQQAVWGQGTLVTVSSASTKGPSVFPLAPCSRSTSESTAALGCLVKDYFPEPVTVSWNSGALTSGVHTFPAVLQSSGLYSLSSVVTVPSSNFGTQTYTCNVDHKPSNTKVDKTVERKCCVECPPCPAPPVAGPSVFLFPPKPKDTLMISRTPEVTCVVVDVSHEDPEVQFNWYVDGVEVHNAKTKPREEQFNSTFRVVSVLTVVHQDWLNGKEYKCKVSNKGLPAPIEKTISKTKGQPREPQVYTLPPSREEMTKNQVSLTCLVKGFYPSDIAVEWESNGQPENNYKTTPPMLDSDGSFFLYSKLTVDKSRWQQGNVFSCSVMHEALHNHYTQKSLSLSPGK
light: MAWALLLLTLLTQGTGSWAQSALTQPASVSGSPGQSITISCTGTSSDIGGYQYVSWYQQHPGKAPKLMIYYVSNRPSGVSNRFSGSKSGNTASLTISGLQAEDEADYYCQSADSSSWVFGGGTKLTVLGQPKAAPSVTLFPPSSEELQANKATLVCLISDFYPGAVTVAWKADSSPVKAGVETTTPSKQSNNKYAASSYLSLTPEQWKSHRSYSCQVTHEGSTVEKTVAPTECS
modifications: Synthetic 90R21 Heavy chain; Synthetic 90R21 Light chain
B2 was tested, and the “blocking of binding between DLL4 and Notch1” value (human Notch1) was “blocked the binding; also recorded: disrupted ligand binding”, the “formation of Notch ICD in response to DLL4” value [1] was “prevented formation of Notch ICD; also recorded: inhibited ICD formation” and the “tumor growth, PE13, combination” value (PE13 breast tumor cells; [3]) was “virtually eliminated tumor growth”. The “tumor growth, PE13” value (PE13 breast tumor cells; [4]) was “significantly reduced tumor growth; also recorded: reduced tumor growth significantly”, the “tumor growth, T3, combination” value (T3 breast tumor cells; [3]) was “virtually eliminated T3 tumor growth” and the “tumor growth, T3” value (T3 breast tumor cells; [4]) was “significantly reduced tumor growth; also recorded: reduced tumor growth significantly”.
